From patent EP4361176A1 come the findings set out here.

Changes are numbered by the printed parent chain. Bounds are passed on as bounds.

The target in experiment [1] is T1, hCTLA4-His-BAP (human).
T1 sequence (chain, biotin on the BAP-tag): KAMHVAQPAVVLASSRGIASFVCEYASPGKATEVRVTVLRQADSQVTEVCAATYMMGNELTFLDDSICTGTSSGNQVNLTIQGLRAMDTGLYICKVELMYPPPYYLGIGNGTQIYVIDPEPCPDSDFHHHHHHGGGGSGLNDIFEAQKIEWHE
Nature of the experiment: IgG ELISA, 2.5 ug/mL IgG, no AMP.

For experiment [2], the target named is T1, hCTLA4-His-BAP (human). Nature of the experiment: IgG ELISA, absorbance with / without AMP.
The target of experiment [3] is T1, hCTLA4-His-BAP (human). Description: IgG ELISA, 2.5 ug/mL IgG, 1 mM AMP; overflow set to 5.00.
In experiment [4] the target is T1, hCTLA4-His-BAP (human). Nature of the experiment: IgG ELISA, 2.5 ug/mL IgG, 1 mM AMP.
Experiment [5] concerns the target human FcγRIIb extracellular domain with C-terminal His-tag (human) (UniProt P31994). Nature of the experiment: SPR; binding amount / that of 04H1389-G1m/04L1615-k0MT.
Experiment [6] has the same target. Description: SPR (Biacore T200), FcγRIIb, amount bound per unit captured antibody.
Experiment [7] addresses human CTLA4 (soluble analyte of the Biacore assays of Reference Example 3-3) (human) (UniProt P16410). Description: SPR Biacore T200, 10 uM ATP.
Experiment [8] concerns the target human FcγRIIb extracellular domain with C-terminal His-tag (human) (UniProt P31994). Nature of the experiment: SPR; binding amount / that of 04H1656-G1m/04L1610-lam1.

human FcγRIIb extracellular domain with C-terminal His-tag (human), sequence (P31994 43-217): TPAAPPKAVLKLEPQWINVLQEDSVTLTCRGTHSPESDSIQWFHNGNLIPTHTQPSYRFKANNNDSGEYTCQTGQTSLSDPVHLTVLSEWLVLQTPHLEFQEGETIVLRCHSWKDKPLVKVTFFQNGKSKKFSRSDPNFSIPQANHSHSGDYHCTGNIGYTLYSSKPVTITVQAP

B1: ABAM001 (antibody, human IgG1, V domains shown)
VH: EVQLVESGGDLVKPGGGLRLSCAASGFTFSSYTMHWVRQAPGKGLEWVSSISSRSRYKYYADSVKGRFTISRDNAKNSLYLQMNSLRAEDTAVYYCARFGIKNKRNWVLDYWGQGTLVTVSS
VL: QSALTQPPSASGSPGQTVTISCTGTSTDVGAYNYVSWYQQHPGKAPKLMIYQVSKRPSGVPDRFSGSKSGNTASLTVSGLQAEDEADYFCSLYTTRPQLAFGGGTKLTVL
In the case of B1, the 450 nm Absorbance is 3.46 in the experiment with hCTLA4-His-BAP (human) [1] and more than 5 in the experiment with hCTLA4-His-BAP (human) [3]. In the experiment with hCTLA4-His-BAP (human) [2], the S/N was more than 1.45.

B2: ABAM003 (antibody, human IgG1, V domains shown)
VH: B1 VH with S31G, K58A, Y59S, K104H, R105L, L109F
VL: QSALTQPPSASGSPGQTVTISCTGTSSDVGDYNYVSWYQQHPGKAPKLMIYGVSKRPSGVPDRFSGSKSGNTASLTVSGLQAEDEADYFCSTVSTSHSPVFGGGTKLTVL
As to B2, the 450 nm Absorbance in the experiment with hCTLA4-His-BAP (human) [1] is 3.18; in the experiment with hCTLA4-His-BAP (human) [3] it was more than 5. The S/N with hCTLA4-His-BAP (human) [2] is more than 1.57.

B3: ABAM002 (antibody, human IgG1, V domains shown)
VH: EVQLVESGGDLVKPGGGLRLSCAASGFTFSSYTMNWVRQAPGKGLEWVSSISSRSTYAHYADSVKGRFTISRDNAKNSLYLQMNSLRAEDTAVYYCARFGGRGHLLWVFDYWGQGTLVTVSS
VL: B2 VL with S27T, D31T, G52Q, V53G, T95G, S96D, H97F, S98H, P99V, V100A
In the case of B3, the 450 nm Absorbance with hCTLA4-His-BAP (human) [1] is 0.139; in the experiment with hCTLA4-His-BAP (human) [3] it was more than 5. In the experiment with hCTLA4-His-BAP (human) [2], the S/N was more than 36.

B4: ABAM006 (antibody, human IgG1, V domains shown)
VH: B1 VH with S31T, R56G, Y57H, K58A, Y59H, I101R, N103K, N106L, L109F
VL: B1 VL with A31F, V53N, L92T, Y93N, T94R, T95A, R96A, P97R, Q98S, L99V
For the molecule B4, the 450 nm Absorbance with hCTLA4-His-BAP (human) [1] was 0.776; with hCTLA4-His-BAP (human) [4], 3. Further, the S/N with hCTLA4-His-BAP (human) [2] amounted to 3.86.

B5: ABAM005 (antibody, human IgG1, V domains shown)
VH: B3 VH with S31G, T56N, A58I, H59S, F99Y, G101A, R102L, G103N, L105M
VL: B1 VL with Q52S, V53T, T94R, T95Y, R96A, P97Q, Q98G, L99V, A100V
For the molecule B5, the 450 nm Absorbance worked out at 0.069 in the experiment with hCTLA4-His-BAP (human) [1] and 0.303 with hCTLA4-His-BAP (human) [4]. For the same molecule, in the experiment with hCTLA4-His-BAP (human) [2], the S/N was 4.46.

B6: 04H1389-Km481/04L1615-k0MT//04H1389-Hm498/04L1615-k0MT (antibody)
heavy 1: EVQLVESGGGLVKPGGSLRLSCAASGFTFSSKTMNWVRQAPGKGLEWVSSISTQSHYIYYAESVKGRFTISRDNAKNSLYLQMNSLRAEDTAVYYCARYGKREDMLWVFDYWGQGTLVTVSSASTKGPSVFPLAPSSKSTSGGTAALGCLVKDYFPEPVTVSWNSGALTSGVHTFPAVLQSSGLYSLSSVVTVPSSSLGTQTYICNVNHKPSNTKVDKRVEPKSCDKTHTCPPCPAPEFQWGPMVFLFPPKPKDVLMISRTPEVTCVVVDVSDEEPEVKFNWYVDGVEVHNAKTKPREEQYNATYRVVSVLPVLHQDWLNGKEYKCKVSNDALPAPEEKTISKAKGQPREPQVCTLPPSREEMTKNQVSLWCLVKGFYPSDIAVEWESNGQPENNYKTTPPVLDSDGSFFLYSKLTVDKSRWQQGNVFSCSVMHEALHAHTTRKELSLSP
heavy 2: EVQLVESGGGLVKPGGSLRLSCAASGFTFSSKTMNWVRQAPGKGLEWVSSISTQSHYIYYAESVKGRFTISRDNAKNSLYLQMNSLRAEDTAVYYCARYGKREDMLWVFDYWGQGTLVTVSSASTKGPSVFPLAPSSKSTSGGTAALGCLVKDYFPEPVTVSWNSGALTSGVHTFPAVLQSSGLYSLSSVVTVPSSSLGTQTYICNVNHKPSNTKVDKRVEPKSCDKTHTCPPCPAPELLAGPSVFLFPPKPKDVLMISRTPEVTCVVVDVSHEEPEVKFNWYVDGVEVHNAKTKPREEQYNATYRVVSVLPVLHQDWLNGKEYKCKVSNDALPAPEEETISKAKGQPREPQVYTLPPSRCEMTKNQVSLSCAVKGFYPSDIAVEWESNGQPENNYKTTPPVLDSDGSFFLVSKLTVDKSRWQQGNVFSCSVMHEALHAHTTRKELSLSP
light: DIVMTQSPLSLPVTPGEPASISCQGPSTGVGDYNYVHWYQQKPGQAPRLLIYFTSKKPSGVPDRFSGSGSGTDFTLKISRVEAEDVGVYYCQTYAAPLGPMFGQGTKLEIKRTVAAPSVFIFPPSDEQLKSGTASVVCLLNNFYPREAKVQWKVDNALQSGNSQESVTEQDSKDSTYSLSSTLTLSKADYEKHKVYACEVTHQGLSSPVTKSFNRGEC
Turning to B6, the Relative binding amount in experiment [5] was 1.9. Moreover, in experiment [6], the Binding amount came to 0.021.

B7: 04H1389-G1m/04L1086-lam1 (antibody, human IgG1, lambda, V domains shown)
VH: EVQLVESGGGLVKPGGSLRLSCAASGFTFSSKTMNWVRQAPGKGLEWVSSISTQSHYIYYAESVKGRFTISRDNAKNSLYLQMNSLRAEDTAVYYCARYGKREDMLWVFDYWGQGTLVTVSS
VL: QSALTQPPSASGSPGQTVTISCDGPSTGVGDYNYVHWYQQHPGKAPKLMIYFTSKKPSGVPDRFSGSKSGNTASLTVSGLQAEDEADYFCQTYAAPLGPMFGGGTKLTVLG
For B7, the fold enhanced binding vs parent 04H1207-G1m/04L1086-lam1 in experiment [7] was determined as 10 fold.

B8: 04H1382-G1m/04L1086-lam1 (antibody, human IgG1, lambda, V domains shown)
VH: B7 VH with E62R
VL: B7 VL
For the molecule B8, the fold enhanced binding vs parent 04H1208-G1m/04L1086-lam1 in experiment [7] was 10 fold.

B9: 04H1654-KT462/04L1610-lam1//04H1656-HT441/04L1610-lam1 (antibody, human IgG1, lambda)
heavy 1: QVQLVESGGGVVQPGGSLRLSCAASGFTFSSKTMNWVRQAPGKGLEWVSSISTQSHYIYYARSVRGRFTISRDNAKNSLYLQMNSLRAEDTAVYYCARYGKREDMLWVFDYWGQGTLVTVSSASTKGPSVFPLAPSSKSTSGGTAALGCLVKDYFPEPVTVSWNSGALTSGVHTFPAVLQSSGLYSLSSVVTVPSSSLGTQTYICNVNHKPSNTKVDKRVEPKSCDKTHTCPPCPAPEFQWGPMVFLFPPKPKDVLMISRTPEVTCVVVDVSDEEPEVKFNWYVDGVEVHNAKTKPREEQYNATYRVVSVLPVLHQDWLNGKEYKCKVSNDALPAPIEKTISKAKGQPREPQVYTLPPSRKEMTKNQVSLTCLVKGFYPSDIAVEWESNGQPENNYKTTPPVLDSDGSFFLYSKLTVDKSRWQQGNVFSCSVMHEALHNHYTQKSLSLSP
heavy 2: B9 heavy 1 with R62E, K101A, F239L, Q240L, W241A, M244S, D273H, K339E, K361E, K444E
light: QSALTQPPSASGSPGQSVTISCEGPSTGVGDYNWVHWYQQHPGKAPKLMIYFTSKKPSGVPDRFSGSKSGNTASLTVSGLQAEDEADYYCQTYAAPLGPMFGGGTKLTVLGQPKAAPSVTLFPPSSEELQANKATLVCLISDFYPGAVTVAWKADSSPVKAGVETTTPSKQSNNKYAASSYLSLTPEQWKSHRSYSCQVTHEGSTVEKTVAPTECS
Molecule B9 came in with a Relative binding amount in experiment [8] of 1.7. Further, the Binding amount in experiment [6] stood at 0.014.

B10: 04H1389-Km461/04L1615-k0MT//04H1389-Hm443/04L1615-k0MT (antibody, human IgG1, kappa)
heavy 1: B6 heavy 1 with A439N, T441Y, R443Q, E445S
heavy 2: B6 heavy 2 with A439N, T441Y, R443Q, E445S
light: B6 light
As to B10, the Relative binding amount in experiment [5] is 2.1. In addition, the Binding amount in experiment [6] worked out at 0.024.

B11: 04H1654-KT473/04L1610-lam1//04H1656-HT451/04L1610-lam1 (antibody)
heavy 1: B9 heavy 1 with N439A, Y441T, Q443R, S445E
heavy 2: QVQLVESGGGVVQPGGSLRLSCAASGFTFSSKTMNWVRQAPGKGLEWVSSISTQSHYIYYAESVRGRFTISRDNAKNSLYLQMNSLRAEDTAVYYCARYGAREDMLWVFDYWGQGTLVTVSSASTKGPSVFPLAPSSKSTSGGTAALGCLVKDYFPEPVTVSWNSGALTSGVHTFPAVLQSSGLYSLSSVVTVPSSSLGTQTYICNVNHKPSNTKVDKRVEPKSCDKTHTCPPCPAPELLAGPSVFLFPPKPKDVLMISRTPEVTCVVVDVSHEEPEVKFNWYVDGVEVHNAKTKPREEQYNATYRVVSVLPVLHQDWLNGKEYKCKVSNDALPAPIEETISKAKGQPREPQVYTLPPSREEMTKNQVSLTCLVKGFYPSDIAVEWESNGQPENNYKTTPPVLDSDGSFFLYSKLTVDKSRWQQGNVFSCSVMHEALHAHTTREELSLSP
light: B9 light
The molecule B11 came in with a Relative binding amount in experiment [8] of 1.5. Also, the Binding amount in experiment [6] is 0.012.
